In patent publication US20100029702A1, “Method For Identification of Compound Having Anti-Anxiety Effect” (priority 2006, published 2010):

Biological target: T1, protein encoded by ph01207 (Homo sapiens, UniProt O60241, DEL308-362)
T1 construct: expressed in transfected cells; host or cells: CHO-K1 (HA-ph01207#10-6, FERM BP-10101), T8HA-attR/pCINeo
T1 sequence (O60241 with tags, fused parts or gaps DEL308-362): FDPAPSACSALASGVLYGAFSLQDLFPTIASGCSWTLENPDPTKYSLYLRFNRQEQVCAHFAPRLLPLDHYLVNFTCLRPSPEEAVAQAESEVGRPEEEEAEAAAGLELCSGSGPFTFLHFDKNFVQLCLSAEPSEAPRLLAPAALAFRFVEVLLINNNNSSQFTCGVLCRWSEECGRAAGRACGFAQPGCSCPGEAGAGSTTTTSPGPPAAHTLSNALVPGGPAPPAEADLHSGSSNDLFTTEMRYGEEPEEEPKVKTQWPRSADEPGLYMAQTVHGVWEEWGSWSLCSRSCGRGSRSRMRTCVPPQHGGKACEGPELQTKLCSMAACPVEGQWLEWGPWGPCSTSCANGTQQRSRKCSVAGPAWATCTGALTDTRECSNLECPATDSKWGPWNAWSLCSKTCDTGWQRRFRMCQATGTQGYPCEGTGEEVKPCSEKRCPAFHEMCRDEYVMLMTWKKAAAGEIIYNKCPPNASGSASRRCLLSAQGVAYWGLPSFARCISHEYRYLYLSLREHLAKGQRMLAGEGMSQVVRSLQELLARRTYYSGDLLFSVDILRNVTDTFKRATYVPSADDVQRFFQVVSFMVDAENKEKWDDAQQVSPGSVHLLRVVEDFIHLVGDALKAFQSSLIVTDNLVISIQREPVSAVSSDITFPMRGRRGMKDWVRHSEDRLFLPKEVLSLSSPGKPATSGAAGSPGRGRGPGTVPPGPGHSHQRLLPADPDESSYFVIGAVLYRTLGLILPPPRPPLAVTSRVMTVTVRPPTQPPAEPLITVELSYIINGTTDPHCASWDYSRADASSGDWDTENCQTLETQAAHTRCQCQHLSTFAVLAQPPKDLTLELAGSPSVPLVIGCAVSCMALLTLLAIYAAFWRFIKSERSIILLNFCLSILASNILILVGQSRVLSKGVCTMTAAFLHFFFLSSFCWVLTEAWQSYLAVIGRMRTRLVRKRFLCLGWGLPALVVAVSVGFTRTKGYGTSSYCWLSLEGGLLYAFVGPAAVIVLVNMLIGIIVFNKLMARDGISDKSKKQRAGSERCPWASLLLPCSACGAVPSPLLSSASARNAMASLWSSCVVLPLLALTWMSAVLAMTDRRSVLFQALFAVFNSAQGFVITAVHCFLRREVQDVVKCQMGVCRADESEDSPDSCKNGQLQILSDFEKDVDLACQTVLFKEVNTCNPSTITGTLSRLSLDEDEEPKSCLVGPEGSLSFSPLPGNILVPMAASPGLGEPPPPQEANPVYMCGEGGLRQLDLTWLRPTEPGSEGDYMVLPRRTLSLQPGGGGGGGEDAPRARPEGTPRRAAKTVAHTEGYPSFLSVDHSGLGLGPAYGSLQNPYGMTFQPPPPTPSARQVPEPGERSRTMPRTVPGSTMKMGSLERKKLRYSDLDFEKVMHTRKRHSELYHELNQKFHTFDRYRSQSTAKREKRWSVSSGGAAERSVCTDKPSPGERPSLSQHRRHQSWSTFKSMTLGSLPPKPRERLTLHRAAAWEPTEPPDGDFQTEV
Assay: Changes in intracellular Ca2+ concentration in HA-ph01207#10-6 cell strain (CHO-K1 stably expressing ph01207)
Type: cell-based
Experimental: Changes in the intracellular calcium (Ca^2+) concentration induced by CCK-8S (SEQ ID NO: 14), CCK-8NS, or CCK-4 were measured using the cell strains expressing ph01207 prepared in Example 2. The cell strains prepared in Example 2 were eight strains that expressed the protein encoded by ph01207 as FLAG-tag fusion proteins and four strains that expressed the protein encoded by ph01207 as HA-tag fusion proteins. Of these, the HA-ph01207#10-6 cell strain, a strain obtained by cloning one of the cell strains that stably expressed the protein encoded by ph01207 as HA-tag fusion proteins, was used in this example. CCK-8NS was a CCK octapeptide having the same amino acid sequence as that of CCK-8S (SEQ ID NO: 14), but a region from the C terminus to the seventh tyrosine residue was not sulfated. CCK-4 was a tetrapeptide comprising residues from the C terminus to the fourth amino acid of CCK-8S (SEQ ID NO: 14).
The specific method for measuring changes in the intracellular Ca^2+ concentration in the HA-ph01207#10-6 cell strain induced by CCK-8S (SEQ ID NO: 14) and the results are described below. The HA-ph01207#10-6 cell strain was seeded on a 96-well plate (a plate with a black wall and a transparent bottom) at a cell count of 2×10^4/100 μL medium/well and cultured at 37° C. in the presence of 5% CO2. As a medium, DMEM/F12 (Gibco) containing 10% fetal calf serum (Moregate) was used. On the following day, 50 μL of the medium was removed from each well, 50 μL of a loading buffer was added to each well, and the mixture was reacted at room temperature for 1.5 h, so that a fluorescent dye contained in the loading buffer should be taken up into the cell. The loading buffer was prepared by dissolving component A of the FLIPR Calcium 3 Assay Kit (Molecular Device) in a solution obtained by adding 0.1 mL of 500 mM probenecid (Sigma) to 9.9 mL of component B. After reaction, changes over time in the fluorescence intensity in each well after addition of CCK-8S (Peptide Institute, Inc.) were measured using the FLEX station (Molecular Device). Furthermore, similar measurement was performed for CCK-8NS (Peptide Institute, Inc.) and CCK-4 (Peptide Institute, Inc.). 0.52 mg of CCK-8S (SEQ ID NO: 14) was dissolved in 4.5 mL of 1% NaHCO3 (Wako) to prepare a solution having 0.1 mM concentration. 0.53 mg of CCK-8NS was dissolved in 0.50 mL of dimethyl sulfoxide (DMSO, Sigma), and then 4.50 mL of redistilled water H2O was added to prepare a solution having 0.1 mM concentration. 0.54 mg of CCK-4 was dissolved in 0.46 mL of DMSO, 4.09 mL of redistilled water was added to prepare a solution having 0.2 mM concentration. […]

Row | Change in intracellular Ca2+ concentration (fluorescence intensity) (peptide at final concentration 1 nM) | Compound | Change in intracellular Ca2+ concentration (fluorescence intensity) (A23187 10 μM, positive control)
1 | increased | cholecystokinin octapeptide sulfated form [CCK-8S] | 
2 |  | CNc1ccc2oc(C[C@H]3O[C@@]4(CC[C@H]3C)O[C@H]([C@H](C)C(=O)c3ccc[nH]3)[C@H](C)C[C@H]4C)nc2c1C(=O)O [A23187] | increased
